Experiments:
Human SLIT2-N [1] = molecular target: T1, Human SLIT2-N (human, UniProt O94813 31-1121, limits assumed); assay: flow cytometry, AF647-labelled ROBO2-Fc 2.2 on HEK293 cells overexpressing human SLIT2-N (FIG. 5)
T1 construct: domain: SLIT2-N (N terminal fragment); Soluble analyte in SPR, d2-labelled in HTRF, overexpressed on HEK293 cells in flow cytometry; also called human SLIT2-N (N terminal fragment)
T1 sequence (looked up): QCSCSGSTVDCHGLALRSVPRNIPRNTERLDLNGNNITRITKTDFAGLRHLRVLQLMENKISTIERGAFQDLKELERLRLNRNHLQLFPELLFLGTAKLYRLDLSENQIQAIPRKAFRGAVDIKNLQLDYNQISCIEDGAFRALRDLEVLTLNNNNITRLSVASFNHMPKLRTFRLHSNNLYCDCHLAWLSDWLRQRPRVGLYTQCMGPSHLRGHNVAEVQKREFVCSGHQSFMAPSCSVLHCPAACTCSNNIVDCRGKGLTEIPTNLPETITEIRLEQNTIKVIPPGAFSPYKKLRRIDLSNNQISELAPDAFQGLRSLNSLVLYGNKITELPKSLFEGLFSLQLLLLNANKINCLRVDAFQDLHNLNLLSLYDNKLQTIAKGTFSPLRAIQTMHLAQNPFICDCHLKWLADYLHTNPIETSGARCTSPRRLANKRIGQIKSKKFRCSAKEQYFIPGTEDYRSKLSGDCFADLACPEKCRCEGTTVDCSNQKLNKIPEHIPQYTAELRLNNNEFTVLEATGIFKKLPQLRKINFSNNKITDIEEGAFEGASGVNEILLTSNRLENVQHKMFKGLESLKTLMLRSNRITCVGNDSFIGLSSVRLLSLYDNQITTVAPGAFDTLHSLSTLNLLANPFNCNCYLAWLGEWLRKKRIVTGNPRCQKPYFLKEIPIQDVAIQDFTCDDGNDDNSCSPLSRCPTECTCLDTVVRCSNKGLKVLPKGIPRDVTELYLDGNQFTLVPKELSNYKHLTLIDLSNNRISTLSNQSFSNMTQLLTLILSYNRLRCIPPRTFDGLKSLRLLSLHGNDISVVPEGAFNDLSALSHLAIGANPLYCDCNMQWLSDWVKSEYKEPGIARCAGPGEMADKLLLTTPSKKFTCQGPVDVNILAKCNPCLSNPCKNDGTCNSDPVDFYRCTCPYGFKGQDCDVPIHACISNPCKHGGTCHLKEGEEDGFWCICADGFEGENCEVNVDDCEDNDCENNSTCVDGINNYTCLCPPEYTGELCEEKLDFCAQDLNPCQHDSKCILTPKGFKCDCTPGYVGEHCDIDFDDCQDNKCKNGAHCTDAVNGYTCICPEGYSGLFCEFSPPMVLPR
Description: After incubation, 150 μL of FACS buffer was added per well to wash the cells. After washing, cells were resuspended in buffer for data acquisition on a Fortessa Flow Cytometer.

Human SLIT2-N [2] = molecular target: T1, Human SLIT2-N; assay: HTRF competition: d2-labelled human SLIT2-N binding to human ROBO2 on HEK293 cells (competitor: cell surface ROBO2)
Description: (§1) After incubation, fluorescence at 665 nm and 620 nm was measured on an Envision multilabel plate reader. The HTRF Ratio was calculated as follows: fluorescence at 665 nm/fluorescence at 620 nm×10,000. […] The IC₅₀ for each SLITx-N was determined using an 11-point, 4-fold dilution series with a top concentration of 4000 nM.

Human SLIT2-N [3] = molecular target: T1, Human SLIT2-N; assay: HTRF competition: d2-labelled human SLIT2-N binding to human ROBO2 on HEK293 cells; geometric mean, n=4; Table 2 species panel; geometric mean, n=4
Description: as §1

[4] = molecular target: T2, Cynomolgus monkey SLIT3-N (cynomolgus monkey, UniProt A0A2K5UAP4 33-1125); assay: HTRF competition: d2-labelled cynomolgus monkey SLIT3-N binding to human ROBO2 on HEK293 cells; geometric mean, n=3
T2 construct: domain: SLIT3-N; d2-labelled in the HTRF assay
T2 sequence: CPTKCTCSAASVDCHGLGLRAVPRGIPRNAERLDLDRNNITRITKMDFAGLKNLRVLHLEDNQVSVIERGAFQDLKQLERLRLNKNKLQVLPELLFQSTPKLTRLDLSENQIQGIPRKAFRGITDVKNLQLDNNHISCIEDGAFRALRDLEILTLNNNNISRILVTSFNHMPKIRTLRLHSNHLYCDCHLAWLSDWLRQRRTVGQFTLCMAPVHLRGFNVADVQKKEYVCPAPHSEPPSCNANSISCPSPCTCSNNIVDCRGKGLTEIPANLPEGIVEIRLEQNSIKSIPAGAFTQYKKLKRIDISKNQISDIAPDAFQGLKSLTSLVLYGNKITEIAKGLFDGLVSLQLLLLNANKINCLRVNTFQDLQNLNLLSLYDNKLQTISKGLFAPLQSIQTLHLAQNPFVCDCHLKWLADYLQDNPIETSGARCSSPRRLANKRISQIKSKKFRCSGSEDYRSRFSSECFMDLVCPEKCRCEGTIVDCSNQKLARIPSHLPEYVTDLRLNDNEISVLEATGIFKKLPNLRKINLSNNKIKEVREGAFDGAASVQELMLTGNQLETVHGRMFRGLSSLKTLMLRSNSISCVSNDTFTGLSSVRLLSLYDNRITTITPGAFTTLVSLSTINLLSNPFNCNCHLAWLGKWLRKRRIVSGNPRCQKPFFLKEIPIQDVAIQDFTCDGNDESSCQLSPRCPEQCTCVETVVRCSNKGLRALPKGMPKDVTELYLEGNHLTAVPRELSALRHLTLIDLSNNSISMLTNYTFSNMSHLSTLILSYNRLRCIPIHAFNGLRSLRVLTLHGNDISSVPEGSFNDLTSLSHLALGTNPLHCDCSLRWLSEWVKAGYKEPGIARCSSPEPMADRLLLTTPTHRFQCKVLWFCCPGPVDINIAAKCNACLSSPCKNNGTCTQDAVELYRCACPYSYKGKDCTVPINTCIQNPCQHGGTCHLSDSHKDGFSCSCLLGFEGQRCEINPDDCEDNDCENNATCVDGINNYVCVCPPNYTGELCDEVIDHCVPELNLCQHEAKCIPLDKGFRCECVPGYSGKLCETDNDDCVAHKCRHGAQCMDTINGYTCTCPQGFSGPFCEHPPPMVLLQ
Description: as §1

EC50 (Human SLIT2-N [1]): 9 nM | IC50 (Human SLIT2-N [2]): 7 nM | IC50 (Human SLIT2-N [3]): 3.9 nM | IC50 [4]: 3.6 nM
B1: ROBO2-Fc 2.2 (Fc fusion)
chain: SRLRQEDFPPRIVEHPSDVIVSKGEPTTLNCKAEGRPTPTIEWYKDGERVETDKDDPRSHRMLLPSGSLFFLRIVHGRRSKPDEGSYVCVARNYLGEAVSRNASLEVALLRDDFRQNPTDVVVAAGEPAILECQPPRGHPEPTIYWKKDKVRIDDKEERISIRGGKLMISNTRKSDAGMYTCVGTNMVGERDSDPAELTVFERGGSGGSEPKSSDKTHTCPPCPAPEAAGAPSVFLFPPKPKDTLMISRTPEVTCVVVDVSHEDPEVKFNWYVDGVEVHNAKTKPREEQYNSTYRVVSVLTVLHQDWLNGKEYKCKVSNKALPAPIEKTISKAKGQPREPQVYTLPPSREEMTKNQVSLTCLVKGFYPSDIAVEWESNGQPENNYKTTPPVLDSDGSFFLYSKLTVDKSRWQQGNVFSCSVMHEALHNHYTQKSLSLSPG
notes: Labelled with Alexa Fluor 647 in the flow cytometry assay; also called ROBO-Fc 2.2; ROBO2-Fc 2.2-AF647

From US20210214414A1 (Pfizer, published 2021)
